Article PMC10602884, “Distinct RPA functions promote eukaryotic DNA replication initiation and elongation”

T1: Gp32 (T4 bacteriophage, UniProt P03695 1-301)
T1 sequence: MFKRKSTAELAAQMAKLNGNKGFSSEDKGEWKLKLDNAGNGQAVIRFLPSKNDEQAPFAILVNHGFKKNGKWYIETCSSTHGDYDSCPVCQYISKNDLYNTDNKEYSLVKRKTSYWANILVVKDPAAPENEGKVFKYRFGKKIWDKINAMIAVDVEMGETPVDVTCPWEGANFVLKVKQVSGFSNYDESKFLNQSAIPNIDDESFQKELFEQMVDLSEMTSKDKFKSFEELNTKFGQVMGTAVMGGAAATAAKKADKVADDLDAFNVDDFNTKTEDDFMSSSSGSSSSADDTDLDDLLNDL


Tests used:
EcSSB = EcSSB (Escherichia coli, UniProt P0AGE0 1-178); experiment: fluorescence anisotropy; 0.5 M NaCl; apparent Kd, Hill fit; 30 mM HEPES pH 7.5, 30 mM NaCl, 0.25 mM EDTA, 10% glycerol, 0.01% NP-40, 1 mM DTT, plus 0.5 M NaCl for dT30 (no supplemental NaCl for dT60), 2.5 nM DNA, room temperature, 30 min; conditions: protein: commercial; chain copies: 4; label: 6-FAM; single strand
RPA-Tri-C (OB-C/D/E) = RPA-Tri-C (OB-C/D/E) (Saccharomyces cerevisiae, UniProt P22336;P26754;P26755 442-621;32-182;1-122); experiment: as above; conditions: protein: recombinant; tags: Rfa2 C-terminal MxeGyrA intein-CBD-6xHis (in expression construct); copies: 1;1;1; label: 6-FAM; single strand
RPA-deltaOB-F-deltaWH = RPA-deltaOB-F-deltaWH (Saccharomyces cerevisiae, UniProt P22336;P26754;P26755 131-621;1-202;1-122); experiment: as above; conditions: protein: recombinant; tags: CBP on Rfa1; 3xFlag on Rfa2; copies: 1;1;1; label: 6-FAM; single strand
Gp32 = target: T1, Gp32; experiment: as above; conditions: protein: commercial; label: 6-FAM; single strand
[1] = target: RPA (CBP-Rfa1, Rfa2, Rfa3) (Saccharomyces cerevisiae, UniProt P22336;P26754;P26755 1-621;1-273;1-122); experiment: fluorescence anisotropy; 0.5 M NaCl; apparent Kd, Hill coefficient 2.460; 30 mM HEPES pH 7.5, 30 mM NaCl, 0.25 mM EDTA, 10% glycerol, 0.01% NP-40, 1 mM DTT, plus 0.5 M NaCl for dT30 (no supplemental NaCl for dT60), 2.5 nM DNA, room temperature, 30 min; conditions: protein: recombinant; tags: CBP on Rfa1; copies: 1;1;1; label: 6-FAM; single strand
Pol-alpha/primase = Pol-alpha/primase (UniProt P13382;P38121;P20457;P10363 1-1468;1-705;1-528;1-409); experiment: fluorescence anisotropy; DNA pre-bound with equimolar (2.5 nM) RPA-deltaOB-F (P8); matches naked DNA; 30 mM HEPES pH 7.5, 30 mM NaCl, 0.25 mM EDTA, 10% glycerol, 0.01% NP-40, 1 mM DTT, plus 0.5 M NaCl for dT30 (no supplemental NaCl for dT60), 2.5 nM DNA, room temperature, 30 min; conditions: protein: recombinant; copies: 1;1;1;1; label: 6-FAM; single strand

Sequence of RPA-deltaOB-F-deltaWH (P22336 131-621, stated change not applied, chain 1 of 3): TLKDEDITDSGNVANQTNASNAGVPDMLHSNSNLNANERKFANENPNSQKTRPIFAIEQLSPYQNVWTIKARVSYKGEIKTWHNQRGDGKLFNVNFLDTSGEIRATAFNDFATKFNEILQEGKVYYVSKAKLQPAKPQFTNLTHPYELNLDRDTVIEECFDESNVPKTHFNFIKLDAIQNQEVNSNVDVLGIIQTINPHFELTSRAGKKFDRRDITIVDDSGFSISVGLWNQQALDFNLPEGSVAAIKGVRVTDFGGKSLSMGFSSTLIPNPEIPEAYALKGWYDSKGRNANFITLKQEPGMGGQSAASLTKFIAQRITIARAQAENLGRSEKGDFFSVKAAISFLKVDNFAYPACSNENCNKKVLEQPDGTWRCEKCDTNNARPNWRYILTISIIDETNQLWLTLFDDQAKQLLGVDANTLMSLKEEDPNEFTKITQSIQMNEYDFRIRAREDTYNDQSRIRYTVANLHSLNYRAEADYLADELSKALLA
Sequence of RPA-deltaOB-F-deltaWH (P26754 1-202, stated change not applied, chain 2 of 3): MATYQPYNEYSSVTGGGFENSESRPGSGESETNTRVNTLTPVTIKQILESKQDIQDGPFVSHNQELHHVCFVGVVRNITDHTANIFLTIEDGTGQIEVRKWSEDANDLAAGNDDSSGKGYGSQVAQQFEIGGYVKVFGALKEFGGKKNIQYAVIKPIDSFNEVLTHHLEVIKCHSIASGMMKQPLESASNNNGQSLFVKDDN
Sequence of RPA-deltaOB-F-deltaWH (P26755 whole entry, stated change not applied, chain 3 of 3): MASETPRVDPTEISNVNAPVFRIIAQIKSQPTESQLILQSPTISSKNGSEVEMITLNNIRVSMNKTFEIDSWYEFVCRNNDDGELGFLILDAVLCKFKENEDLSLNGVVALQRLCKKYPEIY
Sequence of RPA (CBP-Rfa1, Rfa2, Rfa3) (P22336 whole entry, chain 1 of 3): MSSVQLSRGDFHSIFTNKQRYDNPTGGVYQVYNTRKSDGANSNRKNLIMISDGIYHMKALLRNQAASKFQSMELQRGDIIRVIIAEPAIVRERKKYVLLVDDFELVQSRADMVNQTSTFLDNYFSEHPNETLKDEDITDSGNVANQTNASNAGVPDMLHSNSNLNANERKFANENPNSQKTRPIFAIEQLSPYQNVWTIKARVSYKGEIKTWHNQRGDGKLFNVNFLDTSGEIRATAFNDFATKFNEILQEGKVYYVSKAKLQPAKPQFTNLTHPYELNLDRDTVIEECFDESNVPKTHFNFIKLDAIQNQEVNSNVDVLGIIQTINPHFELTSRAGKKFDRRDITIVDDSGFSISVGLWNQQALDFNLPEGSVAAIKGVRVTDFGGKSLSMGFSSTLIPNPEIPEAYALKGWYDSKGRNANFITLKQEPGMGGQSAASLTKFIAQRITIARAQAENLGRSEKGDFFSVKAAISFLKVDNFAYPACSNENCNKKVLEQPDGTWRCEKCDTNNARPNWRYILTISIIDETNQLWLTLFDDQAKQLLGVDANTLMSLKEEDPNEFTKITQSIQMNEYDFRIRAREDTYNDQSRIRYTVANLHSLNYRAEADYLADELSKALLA
Sequence of RPA (CBP-Rfa1, Rfa2, Rfa3) (P26754 whole entry, chain 2 of 3): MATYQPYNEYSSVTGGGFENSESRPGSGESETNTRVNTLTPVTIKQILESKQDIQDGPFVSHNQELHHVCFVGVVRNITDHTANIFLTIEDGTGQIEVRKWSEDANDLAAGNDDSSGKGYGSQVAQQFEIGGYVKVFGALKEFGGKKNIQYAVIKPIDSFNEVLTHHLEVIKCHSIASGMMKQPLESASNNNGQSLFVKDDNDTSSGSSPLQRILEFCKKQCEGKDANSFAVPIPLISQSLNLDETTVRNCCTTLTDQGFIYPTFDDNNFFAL
Sequence of RPA (CBP-Rfa1, Rfa2, Rfa3) (P26755 whole entry, chain 3 of 3): as the sequence (P26755 whole entry, stated change not applied, chain 3 of 3) above
Sequence of RPA-Tri-C (OB-C/D/E) (P22336 442-621, chain 1 of 3): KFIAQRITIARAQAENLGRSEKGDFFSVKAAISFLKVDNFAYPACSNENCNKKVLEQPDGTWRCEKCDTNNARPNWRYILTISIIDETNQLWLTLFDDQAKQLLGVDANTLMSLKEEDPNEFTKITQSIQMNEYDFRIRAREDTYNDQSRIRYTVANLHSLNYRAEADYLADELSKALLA
Sequence of RPA-Tri-C (OB-C/D/E) (P26754 32-182, chain 2 of 3): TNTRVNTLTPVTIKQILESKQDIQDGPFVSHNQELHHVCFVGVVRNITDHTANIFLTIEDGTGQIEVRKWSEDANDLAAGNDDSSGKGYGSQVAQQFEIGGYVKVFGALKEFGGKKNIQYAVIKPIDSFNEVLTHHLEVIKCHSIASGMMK
Sequence of RPA-Tri-C (OB-C/D/E) (P26755 whole entry, chain 3 of 3): as the sequence (P26755 whole entry, stated change not applied, chain 3 of 3) above
Sequence of EcSSB (P0AGE0 whole entry): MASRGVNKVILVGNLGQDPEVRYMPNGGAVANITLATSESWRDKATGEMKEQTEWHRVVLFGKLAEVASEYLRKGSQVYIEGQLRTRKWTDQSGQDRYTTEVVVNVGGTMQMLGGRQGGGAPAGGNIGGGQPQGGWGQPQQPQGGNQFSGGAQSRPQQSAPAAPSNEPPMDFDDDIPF

Binder | Kd (EcSSB) | Kd (RPA-Tri-C (OB-C/D/E)) | Kd (RPA-deltaOB-F-deltaWH) | Kd (Gp32) | Kd [1] | binding result (Pol-alpha/primase)
TTTTTTTTTTTTTTTTTTTTTTTTTTTTTT (ssDNA) [6-FAM-oligo-dT30] | ~0.11 nM | ~2.97 nM | ~2.04 nM | ~18 nM | 1.73 nM | –
6-FAM-oligo-dT60 (ssDNA) DNA: TTTTTTTTTTTTTTTTTTTTTTTTTTTTTTTTTTTTTTTTTTTTTTTTTTTTTTTTTTTT | – | – | – | – | – | binds
